# B1: Complement Factor I (FI) (protein)
# chain: KVTYTSQEDLVEKKCLAKKYTHLSCDKVFCQPWQRCIEGTCVCKLPYQCPKNGTAVCATNRRSFPTYCQQKSLECLHPGTKFLNNGTCTAEGKFSVSLKHGNTDSEGIVEVKLVDQDKTMFICKSSWSMREANVACLDLGFQQGADTQRRFKLSDLSINSTECLHVHCRGLETSLAECTFTKRRTMGYQDFADVVCYTQKADSPMDDFFQCVNGKYISQMKACDGINDCGDQSDELCCKACQGKGFHCKSGVCIPSQYQCNGEVDCITGEDEVGCAGFASVTQEETEILTADMDAERRRIKSLLPKLSCGVKNRMHIRRKRIVGGKRAQLGDLPWQVAIKDASGITCGGIYIGGCWILTAAHCLRASKTHRYQIWTTVVDWIHPDLKRIVIEYVDRIIFHENYNAGTYQNDIALIEMKKDGNKKDCELPRSIPACVPWSPYLFQPNDTCIVSGWGREKDNERVFSLQWGEVKLISNCSKFYGNRFYEKEMECAGTYDGSIDACKGDSGGPLVCMDANNVTYVWGVVSWGENCGKPEFPGVYTKVANYFDWISYHVGRPFISQYNV
# Target: C3b
protein,measurement,value
B1,in vitro C3b breakdown assay (C3b incubated with FI and a fragment of cofactor CR1; time course by gel electrophoresis and GluC/SRM-MS),"the formation of C3b fragments iC3b, C3f and C3c, and loss of intact C3b can be clearly detected over time"
